Laboratory results reported in patent publication US20200024354A1 (OSSIANIX, published 2020).

Legend:
[1] = biological target: recombinant human BAFF-Fc (Sino Biological) (human) (UniProt Q9Y275); test: cell-based or functional assay
[2] = biological target: recombinant mouse BAFF (R&D Systems) (mouse, UniProt Q9WU72 127-309); test: cell-based or functional assay
[3] = biological target: T1, recombinant human BAFF-Fc (Sino Biological) (human, UniProt Q9Y275 134-285); test: blocking ELISA: periplasmic extract + 1.14 nM BAFF-Fc on coated BAFF-R extracellular domain, anti-human Fc-HRP
T1 construct: Bought reagent; also called hBAFF; not shown: Fc moiety detected by anti-human Fc
Method: The ability of selected BAFF-specific VNARs to prevent the binding of BAFF to its receptor (BAFF-R) was tested in a blocking ELISA format. Briefly, selected clones were grown in 96 deep-well plates and the periplasmic fraction was extracted as described above. Nunc Maxisorp 96-well plates were coated at 1 μg/mL with the BAFF-R extracellular domain (Peprotech) and blocked in PBS-0.1% Tween+2.5% milk. The periplasmic fraction was also pre-blocked in PBS-0.1% Tween-20+2.5% milk in the presence of 1.14 nM BAFF-Fc (Sino Biological) before being exposed to the BAFF-R coated surface. After washing in PBS-0.1% Tween-20, BAFF bound to its receptor was detected via its Fc moiety using a peroxidase-conjugated anti-human Fc (Sigma). Absorbance at 450 nm was recorded using an Envision multiwell reader (Perkin Elmer) (FIG. 8) and clones reducing the amount of BAFF bound to its receptor by more than 50% were selected as specific blockers.

[4] = biological target: T1, recombinant human BAFF-Fc (Sino …); test: cell-based or functional assay
human BAFF (recombinant) [5] = biological target: T2, human BAFF (recombinant) (human, UniProt Q9Y275 134-285); test: ELISA on coated human BAFF
T2 construct: also called hBAFF; recombinant BAFF (Sino biologicals)

human BAFF (recombinant) [6] = biological target: T2, human BAFF (recombinant); test: ELISA on coated human BAFF (legend of FIG. 18; rounded form of 0.632 nM)
Method: Based on the results of Example 11, the A07 anti-BAFF molecule was reformatted as a mouse Fc fusion protein with effector function intact. The protein was expressed and purified as described above and EC50 binding to human BAFF was assessed by ELISA as previously described. […] Mice are then injected i.p. with 100 μg of A07-Fc, 5A7-Fc, or blank control (PBS) on day 0 and again on day 4, 8, and 12 before being be culled on day 15. B cell subset populations in the spleen are analysed by flow cytometry as described above and improvements in B cell depletion are anticipated.

recombinant mouse BAFF (R&D Systems), sequence (Q9WU72 127-309 limits assumed): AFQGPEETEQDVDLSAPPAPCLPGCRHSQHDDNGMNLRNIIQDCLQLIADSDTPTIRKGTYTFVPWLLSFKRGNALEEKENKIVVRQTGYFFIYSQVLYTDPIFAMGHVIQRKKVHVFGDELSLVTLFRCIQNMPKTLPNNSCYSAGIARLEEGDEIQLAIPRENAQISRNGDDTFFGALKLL
T1 sequence (Q9Y275 134-285): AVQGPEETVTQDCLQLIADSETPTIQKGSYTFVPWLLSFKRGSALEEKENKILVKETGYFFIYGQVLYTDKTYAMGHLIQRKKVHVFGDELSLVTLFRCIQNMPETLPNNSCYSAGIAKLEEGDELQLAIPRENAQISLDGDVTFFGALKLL
T2 sequence (Q9Y275 134-285 limits assumed): as the sequence (Q9Y275 134-285) above
recombinant human BAFF-Fc (Sino Biological) (human), sequence (Q9Y275 134-285): as above

“BAFFr (positive control, Example 10) (from UniProt Q96RJ3 1-76) (receptor)” showed an IC50 (human), proliferation of mouse splenic B cells [1] of 66.2 nM and an IC50 (mouse), proliferation of mouse splenic B cells [2] of 7.06 nM.

B1: ID2-101B08 (VNAR)
VNAR: AARVDQTPQTITKETGESLTINCVLRDSNCALSSTLWYRTKSGSRNEESISKGGRYVETVNSGSKSFSLKINDLTVEDSGTYRCKVPRDLLLCKRPRARLPDVYGGGTAVTVNA
notes: Nurse shark VNAR single domain, monomer in periplasmic extract
B1: binds [3].

B2: A07 formatted as a human Fc fusion (Fc fusion, not shown: a dimerising Fc or GST)
chain: AQAAARVDQTPQTITKETGESLTINCVLRDSNCALSNLYWYRKKSGSTNEESISLGGRYVETVNSGSKSFSLRINDLTVEDSGTYRCKVQLPYDPLTKECILGRMDVYGDGTAVTVN
B2 was tested, and the “IC50 (human), proliferation of mouse splenic B cells” value [4] was 2.48 nM and the “IC50 (mouse), proliferation of mouse splenic B cells” value [2] was 1.95 nM.

B3: A07 formatted as a mouse Fc fusion protein with effector function intact (Fc fusion)
chain: AQAAARVDQTPQTITKETGESLTINCVLRDSNCALSNLYWYRKKSGSTNEESISLGGRYVETVNSGSKSFSLRINDLTVEDSGTYRCKVQLPYDPLTKECILGRMDVYGDGTAVTVNAASGAHHHHHHGADYKDDDDK
notes: also called A07-mFc; not shown: mouse Fc with effector function
B3 gave an EC50 (human BAFF (recombinant) [5]) of about 0.632 nM and an EC50 (human BAFF (recombinant) [6]) of about 0.6 nM.

B4: B07 formatted as a human Fc fusion (Fc fusion, not shown: a dimerising Fc or GST)
chain: AQAAARVDQTPRSVTKETGESLTINCVLRDSICALSSTHWYRKKSGSTNEESISKGGRYVETVNSGSKSFSLRINDLTVEDSGTYRCKVHGGRSTGLCGDVLLAGDVYGGGTAVTVN
For B4, the “IC50 (human), proliferation of mouse splenic B cells” value [4] was 3.79 nM and the “IC50 (mouse), proliferation of mouse splenic B cells” value [2] was 604 nM.
